One molecule from patent US20260125451A1 (JIANGSU HENGRUI PHARMACEUTICALS, published 2026) can be followed below.

Assay [1] deals with T1, type I interferon (IFN) receptor subunit 1 (IFNAR1) (human, UniProt P17181 28-557).
T1 sequence (looked up): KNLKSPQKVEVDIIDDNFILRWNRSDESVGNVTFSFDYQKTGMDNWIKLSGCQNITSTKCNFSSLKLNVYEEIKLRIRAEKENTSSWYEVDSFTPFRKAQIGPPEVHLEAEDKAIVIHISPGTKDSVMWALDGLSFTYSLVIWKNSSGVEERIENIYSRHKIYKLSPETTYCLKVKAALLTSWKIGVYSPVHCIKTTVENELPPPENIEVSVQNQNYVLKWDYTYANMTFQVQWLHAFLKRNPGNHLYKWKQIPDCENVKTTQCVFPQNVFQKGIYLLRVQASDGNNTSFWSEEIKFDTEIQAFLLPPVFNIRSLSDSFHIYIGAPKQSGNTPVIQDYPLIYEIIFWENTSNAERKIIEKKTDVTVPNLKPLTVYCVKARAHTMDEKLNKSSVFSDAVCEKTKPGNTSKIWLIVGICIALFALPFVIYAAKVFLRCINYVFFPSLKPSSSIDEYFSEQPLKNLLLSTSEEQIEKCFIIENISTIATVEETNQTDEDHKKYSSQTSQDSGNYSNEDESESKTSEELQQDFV
As to the kind of experiment: cell-based or functional assay.

The target in assay [2] is T1, type I interferon (IFN) receptor …. As to the kind of experiment: cell-based or functional assay. The source holds these as a separate data set.

B1: Anifrolumab (antibody, human IgG1, kappa, V domains shown)
VH: EVQLVQSGAEVKKPGESLKISCKGSGYIFTNYWIAWVRQMPGKGLESMGIIYPGDSDIRYSPSFQGQVTISADKSITTAYLQWSSLKASDTAMYYCARHDIEGFDYWGRGTLVTVSS
VL: EIVLTQSPGTLSLSPGERATLSCRASQSVSSSFFAWYQQKPGQAPRLLIYGASSRATGIPDRLSGSGSGTDFTLTITRLEPEDFAVYYCQQYDSSAITFGQGTRLEIKR
Turning to B1, in assay [1], the “IC50, inhibition of IFN-α-induced in vitro differentiation of B cells into plasma cells” value amounted to 12.7 nM. In assay [2], the “IC50 (nM), inhibition of the activity of type I interferons (IFN-β, HEK-Blue IFN-α/β cells)” value came to 1.53 nM.
